Results on 16 variants are retold here after the supplement of paper PMC7125110.

The chains are these.
B1: glmS ribozyme (parent)
chain: AUAAAAGCGCCAGAACUACAGAAAUGUAGUUGACGAGGAGGAGGUUUAUCGAAUUUUCGGCGGAUGCCUCCAAA

Holding throughout (conditions): with glucosamine-6-phosphate
Data set [1] covers variants of B1. Briefly: kcat; higher = faster cleavage; RNA array. In a few lines:
(§1)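 Weighted Michaelis–Menten fits across concentrations supplied kcat and KM, based on kobs from one- or two-exponential decay fits to normalised per-tile medians. The data came from barcoded ribozyme variants transcribed in situ by E. coli RNA polymerase on sequenced MiSeq chips and tracked at 37 °C by a hybridised Cy3 probe. Glucosamine-6-phosphate (40 μM to 10 mM) in HEPES/KCl/Mg(OAc)2 buffer was flowed in.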

Variants of B1 are the subject of data set [2]. Briefly: KM; higher = weaker cofactor use; RNA array. Put shortly:
as §1

Data set [3] covers variants of B1. Briefly: self-cleavage kobs at 40 uM GlcN6P; higher = faster cleavage; RNA array. In a few lines:
as §1

Variants of B1 are the subject of data set [4]. Briefly: self-cleavage kobs at 160 uM GlcN6P; higher = faster cleavage; RNA array. Put shortly: as §1
The variants in data set [5] derive from B1. The data set is described as follows: self-cleavage kobs at 640 uM GlcN6P; higher = faster cleavage; RNA array. Put shortly: as §1
In data set [6] the parent is B1. The data set is described as follows: self-cleavage kobs at 10000 uM GlcN6P; higher = faster cleavage; RNA array. Put shortly: as §1
The variants in data set [7] derive from B1. Briefly: self-cleavage kobs at 2500 uM GlcN6P; higher = faster cleavage; RNA array. Put shortly: as §1

± gives the standard error. For part of these data: Fewer inactive variants are shown than the library holds.

C11A C58A: in the data set with glucosamine-6-phosphate [1], the kcat (in general, the number of substrate molecules converted per active site and unit of time at saturation) was determined as 2e-05 ± 2.2e-07 s⁻¹. In the data set with glucosamine-6-phosphate [2], the KM – broadly, the concentration of substrate that gives half-maximal velocity – came to 1680 ± 98 µM. Also, the “self-cleavage kobs at 40 uM GlcN6P” value with glucosamine-6-phosphate [3] was less than 1e-05 s⁻¹. In the data set with glucosamine-6-phosphate [4], the “self-cleavage kobs at 160 uM GlcN6P” value is less than 1e-05 s⁻¹. In addition, the “self-cleavage kobs at 640 uM GlcN6P” value with glucosamine-6-phosphate [5] is less than 1e-05 s⁻¹.
Turning to G29U A52U, the kcat with glucosamine-6-phosphate [1] was found to be 0.000123 ± 1.2e-05 s⁻¹. The Michaelis constant (KM) with glucosamine-6-phosphate [2] turned out to be 4620 ± 1400 µM. Also, in the data set with glucosamine-6-phosphate [6], the “self-cleavage kobs at 10000 uM GlcN6P” value amounted to 8.41e-05 ± 1e-05 s⁻¹.
Consider A15G U31G A39U, for which, in the data set with glucosamine-6-phosphate [1], the kcat is 0.00331 ± 0.0014 s⁻¹. Also, the “self-cleavage kobs at 40 uM GlcN6P” value with glucosamine-6-phosphate [3] was 3.3e-05 ± 1.1e-05 s⁻¹. For the same variant, the “self-cleavage kobs at 160 uM GlcN6P” value in the data set with glucosamine-6-phosphate [4] amounted to 0.000104 ± 1.8e-05 s⁻¹. Also, in the data set with glucosamine-6-phosphate [5], the “self-cleavage kobs at 640 uM GlcN6P” value worked out at 0.000575 ± 0.00013 s⁻¹. Moreover, the “self-cleavage kobs at 2500 uM GlcN6P” value in the data set with glucosamine-6-phosphate [7] is 0.000869 ± 0.00014 s⁻¹. For the same variant, the “self-cleavage kobs at 10000 uM GlcN6P” value with glucosamine-6-phosphate [6] came out at 0.00265 ± 0.00042 s⁻¹.
As for G29A G41U, the kcat in the data set with glucosamine-6-phosphate [1] was 9.86e-05 ± 5e-06 s⁻¹. In the data set with glucosamine-6-phosphate [2], the KM was 1050 ± 200 µM. The “self-cleavage kobs at 640 uM GlcN6P” value in the data set with glucosamine-6-phosphate [5] was found to be 3.55e-05 ± 1.5e-05 s⁻¹. Further, the “self-cleavage kobs at 2500 uM GlcN6P” value with glucosamine-6-phosphate [7] was 7.35e-05 ± 1.6e-05 s⁻¹. Further, the “self-cleavage kobs at 10000 uM GlcN6P” value with glucosamine-6-phosphate [6] stood at 8.74e-05 ± 1.5e-05 s⁻¹.
On to U30C C70A, for which, in the data set with glucosamine-6-phosphate [1], the kcat was 5.42e-05 ± 6.4e-06 s⁻¹. Moreover, the “self-cleavage kobs at 160 uM GlcN6P” value with glucosamine-6-phosphate [4] is 5.93e-05 ± 2.3e-05 s⁻¹. Also, in the data set with glucosamine-6-phosphate [5], the “self-cleavage kobs at 640 uM GlcN6P” value was 7.04e-05 ± 2.5e-05 s⁻¹. For the same variant, in the data set with glucosamine-6-phosphate [7], the “self-cleavage kobs at 2500 uM GlcN6P” value came out at 5.57e-05 ± 1.8e-05 s⁻¹. Moreover, in the data set with glucosamine-6-phosphate [6], the “self-cleavage kobs at 10000 uM GlcN6P” value came to 4.43e-05 ± 1.5e-05 s⁻¹.
For the variant G41A U47A, in the data set with glucosamine-6-phosphate [1], the kcat was found to be 0.000635 ± 9.4e-05 s⁻¹. In addition, in the data set with glucosamine-6-phosphate [2], the KM was 282 ± 86 µM. In addition, the “self-cleavage kobs at 40 uM GlcN6P” value in the data set with glucosamine-6-phosphate [3] was found to be 7.36e-05 ± 1.6e-05 s⁻¹. Moreover, the “self-cleavage kobs at 640 uM GlcN6P” value with glucosamine-6-phosphate [5] was 0.000573 ± 0.00011 s⁻¹. Also, the “self-cleavage kobs at 2500 uM GlcN6P” value with glucosamine-6-phosphate [7] is 0.000608 ± 0.00018 s⁻¹. Besides, the “self-cleavage kobs at 10000 uM GlcN6P” value in the data set with glucosamine-6-phosphate [6] is 0.00055 ± 0.0001 s⁻¹.
A33G C67U: in the data set with glucosamine-6-phosphate [1], the kcat stood at 2.01e-05 ± 2.6e-06 s⁻¹. Besides, in the data set with glucosamine-6-phosphate [2], the KM was 1350 ± 420 µM.
Regarding C16U G66C, in the data set with glucosamine-6-phosphate [1], the kcat came out at 0.000514 ± 9.1e-05 s⁻¹. Besides, the KM with glucosamine-6-phosphate [2] came out at 657 ± 250 µM. Also, the “self-cleavage kobs at 160 uM GlcN6P” value with glucosamine-6-phosphate [4] worked out at 9.64e-05 ± 2.1e-05 s⁻¹. For the same variant, the “self-cleavage kobs at 640 uM GlcN6P” value with glucosamine-6-phosphate [5] came to 0.000282 ± 4e-05 s⁻¹. In addition, in the data set with glucosamine-6-phosphate [7], the “self-cleavage kobs at 2500 uM GlcN6P” value was determined as 0.000496 ± 7.3e-05 s⁻¹. The “self-cleavage kobs at 10000 uM GlcN6P” value with glucosamine-6-phosphate [6] was 0.000398 ± 7.3e-05 s⁻¹.
Consider U65C, for which the kcat with glucosamine-6-phosphate [1] came out at 0.000875 ± 9.1e-05 s⁻¹. Further, the KM with glucosamine-6-phosphate [2] worked out at 1690 ± 310 µM. Moreover, the “self-cleavage kobs at 40 uM GlcN6P” value in the data set with glucosamine-6-phosphate [3] came to 2.21e-05 ± 2.1e-06 s⁻¹. Further, the “self-cleavage kobs at 160 uM GlcN6P” value with glucosamine-6-phosphate [4] was found to be 6.95e-05 ± 2.6e-06 s⁻¹. Also, the “self-cleavage kobs at 640 uM GlcN6P” value with glucosamine-6-phosphate [5] stood at 0.000238 ± 5.5e-06 s⁻¹. Also, the “self-cleavage kobs at 2500 uM GlcN6P” value in the data set with glucosamine-6-phosphate [7] is 0.000626 ± 1.6e-05 s⁻¹. For the same variant, the “self-cleavage kobs at 10000 uM GlcN6P” value with glucosamine-6-phosphate [6] turned out to be 0.000705 ± 1.6e-05 s⁻¹.
On to G29U C58U C68U, for which the kcat with glucosamine-6-phosphate [1] was found to be 3.99e-05 ± 1.3e-05 s⁻¹. Also, the “self-cleavage kobs at 2500 uM GlcN6P” value in the data set with glucosamine-6-phosphate [7] turned out to be 5.55e-05 ± 2.2e-05 s⁻¹.
A14G G60A: in the data set with glucosamine-6-phosphate [1], the kcat stood at 8.13e-05 ± 1.1e-05 s⁻¹. The KM with glucosamine-6-phosphate [2] was 3020 ± 1300 µM. For the same variant, the “self-cleavage kobs at 2500 uM GlcN6P” value with glucosamine-6-phosphate [7] was 4.34e-05 ± 1.9e-05 s⁻¹. Moreover, the “self-cleavage kobs at 10000 uM GlcN6P” value in the data set with glucosamine-6-phosphate [6] was determined as 6.17e-05 ± 1.2e-05 s⁻¹.
For C16A U65C, in the data set with glucosamine-6-phosphate [1], the kcat turned out to be 2.42e-05 ± 3.7e-08 s⁻¹. Besides, the KM in the data set with glucosamine-6-phosphate [2] amounted to 654 ± 8.5 µM.
As for U45A G66U, the kcat with glucosamine-6-phosphate [1] came out at 0.00194 ± 0.00019 s⁻¹. The KM with glucosamine-6-phosphate [2] is 2090 ± 330 µM. For the same variant, the “self-cleavage kobs at 40 uM GlcN6P” value with glucosamine-6-phosphate [3] came out at 4.15e-05 ± 1.3e-05 s⁻¹. Moreover, in the data set with glucosamine-6-phosphate [4], the “self-cleavage kobs at 160 uM GlcN6P” value is 0.000117 ± 3.4e-05 s⁻¹. For the same variant, the “self-cleavage kobs at 640 uM GlcN6P” value in the data set with glucosamine-6-phosphate [5] was determined as 0.000508 ± 0.0001 s⁻¹. In the data set with glucosamine-6-phosphate [7], the “self-cleavage kobs at 2500 uM GlcN6P” value stood at 0.00104 ± 0.00022 s⁻¹. Also, the “self-cleavage kobs at 10000 uM GlcN6P” value with glucosamine-6-phosphate [6] was found to be 0.0016 ± 0.00026 s⁻¹.
For the variant C10G U47G G60C, in the data set with glucosamine-6-phosphate [1], the kcat came out at 0.000977 ± 0.00037 s⁻¹. In addition, the “self-cleavage kobs at 160 uM GlcN6P” value with glucosamine-6-phosphate [4] turned out to be 0.000156 ± 5e-05 s⁻¹. In the data set with glucosamine-6-phosphate [5], the “self-cleavage kobs at 640 uM GlcN6P” value is 0.000256 ± 7.5e-05 s⁻¹. Moreover, in the data set with glucosamine-6-phosphate [7], the “self-cleavage kobs at 2500 uM GlcN6P” value was found to be 0.000552 ± 0.00013 s⁻¹. Besides, the “self-cleavage kobs at 10000 uM GlcN6P” value with glucosamine-6-phosphate [6] was determined as 0.0011 ± 0.00032 s⁻¹.
Turning to A14U U65A, the kcat with glucosamine-6-phosphate [1] amounted to 0.0015 ± 0.00017 s⁻¹. Also, the KM with glucosamine-6-phosphate [2] was 4460 ± 760 µM. For the same variant, the “self-cleavage kobs at 160 uM GlcN6P” value in the data set with glucosamine-6-phosphate [4] came out at 4.54e-05 ± 1.3e-05 s⁻¹. For the same variant, the “self-cleavage kobs at 640 uM GlcN6P” value in the data set with glucosamine-6-phosphate [5] was found to be 0.000203 ± 2.7e-05 s⁻¹. Further, the “self-cleavage kobs at 2500 uM GlcN6P” value in the data set with glucosamine-6-phosphate [7] was 0.000449 ± 0.00012 s⁻¹. Besides, in the data set with glucosamine-6-phosphate [6], the “self-cleavage kobs at 10000 uM GlcN6P” value was 0.00105 ± 0.00012 s⁻¹.
With A39G C50A G51U C71G, the kcat with glucosamine-6-phosphate [1] was found to be 1.15e-05 ± 3.2e-06 s⁻¹.
